# Biological target: Pin1 phosphopeptide (fluorescein-labelled) (Homo sapiens, UniProt Q13526)
# Assay: fluorescence anisotropy
# Sequence of Pin1 phosphopeptide (fluorescein-labelled) (Q13526 whole entry): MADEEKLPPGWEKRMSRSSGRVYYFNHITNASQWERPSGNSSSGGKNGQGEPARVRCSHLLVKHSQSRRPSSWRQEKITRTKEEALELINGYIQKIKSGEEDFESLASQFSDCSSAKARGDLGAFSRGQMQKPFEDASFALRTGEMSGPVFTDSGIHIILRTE
row,Kd [µM],Binder
1,1.5,"14-3-3γ (protein, phosphopeptide, fluorescein label, MG1 present (2-3 h)) VDREQLVQKARLAEQAERYDDMAAAMKNVTELNEPLSNEERNLLSVAYKNVVGARRSSWRVISSIEQKTSADGNEKKIEMVRAYREKIEKELEAVCQDVLSLLDNYLIKNCSETQYESKVFYLKMKGDYYRYLAEVATGEKRATVVESSEKAYSEAHEISKEHMQPTHPIRLGLALNYSVFYYEIQNAPEQACHLAKTAFDDAIAELDTLNEDSYKDSTLIMQLLRDNLTLWTSDQQDDDGGEGNN"
2,5.4,"14-3-3γ (protein, phosphopeptide, fluorescein label, MG1 present (10 min)) VDREQLVQKARLAEQAERYDDMAAAMKNVTELNEPLSNEERNLLSVAYKNVVGARRSSWRVISSIEQKTSADGNEKKIEMVRAYREKIEKELEAVCQDVLSLLDNYLIKNCSETQYESKVFYLKMKGDYYRYLAEVATGEKRATVVESSEKAYSEAHEISKEHMQPTHPIRLGLALNYSVFYYEIQNAPEQACHLAKTAFDDAIAELDTLNEDSYKDSTLIMQLLRDNLTLWTSDQQDDDGGEGNN"
3,2.9,"14-3-3γ (protein, phosphopeptide, fluorescein label, fusicoccin-A present) VDREQLVQKARLAEQAERYDDMAAAMKNVTELNEPLSNEERNLLSVAYKNVVGARRSSWRVISSIEQKTSADGNEKKIEMVRAYREKIEKELEAVCQDVLSLLDNYLIKNCSETQYESKVFYLKMKGDYYRYLAEVATGEKRATVVESSEKAYSEAHEISKEHMQPTHPIRLGLALNYSVFYYEIQNAPEQACHLAKTAFDDAIAELDTLNEDSYKDSTLIMQLLRDNLTLWTSDQQDDDGGEGNN"
4,~5.2,"14-3-3γ (protein, phosphopeptide, fluorescein label, MG1 present, pH 6.5) VDREQLVQKARLAEQAERYDDMAAAMKNVTELNEPLSNEERNLLSVAYKNVVGARRSSWRVISSIEQKTSADGNEKKIEMVRAYREKIEKELEAVCQDVLSLLDNYLIKNCSETQYESKVFYLKMKGDYYRYLAEVATGEKRATVVESSEKAYSEAHEISKEHMQPTHPIRLGLALNYSVFYYEIQNAPEQACHLAKTAFDDAIAELDTLNEDSYKDSTLIMQLLRDNLTLWTSDQQDDDGGEGNN"
5,30,"14-3-3γ (protein, phosphopeptide, fluorescein label) VDREQLVQKARLAEQAERYDDMAAAMKNVTELNEPLSNEERNLLSVAYKNVVGARRSSWRVISSIEQKTSADGNEKKIEMVRAYREKIEKELEAVCQDVLSLLDNYLIKNCSETQYESKVFYLKMKGDYYRYLAEVATGEKRATVVESSEKAYSEAHEISKEHMQPTHPIRLGLALNYSVFYYEIQNAPEQACHLAKTAFDDAIAELDTLNEDSYKDSTLIMQLLRDNLTLWTSDQQDDDGGEGNN"
6,~0.6,"14-3-3γ (protein, phosphopeptide, fluorescein label, MG1 present, pH 8.0) VDREQLVQKARLAEQAERYDDMAAAMKNVTELNEPLSNEERNLLSVAYKNVVGARRSSWRVISSIEQKTSADGNEKKIEMVRAYREKIEKELEAVCQDVLSLLDNYLIKNCSETQYESKVFYLKMKGDYYRYLAEVATGEKRATVVESSEKAYSEAHEISKEHMQPTHPIRLGLALNYSVFYYEIQNAPEQACHLAKTAFDDAIAELDTLNEDSYKDSTLIMQLLRDNLTLWTSDQQDDDGGEGNN"

# From paper PMC10284121 (2023)
